PMC6310132

What was measured:
Test in all cases: SPR
[1] = molecular target: trout saccular hair cell snapin, pRSET-A fusion protein (trout)
[2] = molecular target: trout saccular hair cell otoferlin C2F domain, pRSET-A fusion protein (trout)
[3] = molecular target: trout saccular hair cell dopamine D1A4 carboxy terminus, pRSET-A fusion protein (trout)
[4] = molecular target: rat organ of Corti AP2mu1, pRSET-A fusion protein (SPR and Figure 7A,B) (rat) (UniProt P84092)
[5] = molecular target: N-ethylmaleimide-sensitive factor (NSF), pRSET-A fusion protein (mouse) (UniProt P46460)
N-ethylmaleimide-sensitive factor (NSF), pRSET-A fusion protein (mouse), sequence (P46460 whole entry, the tested form may be a part): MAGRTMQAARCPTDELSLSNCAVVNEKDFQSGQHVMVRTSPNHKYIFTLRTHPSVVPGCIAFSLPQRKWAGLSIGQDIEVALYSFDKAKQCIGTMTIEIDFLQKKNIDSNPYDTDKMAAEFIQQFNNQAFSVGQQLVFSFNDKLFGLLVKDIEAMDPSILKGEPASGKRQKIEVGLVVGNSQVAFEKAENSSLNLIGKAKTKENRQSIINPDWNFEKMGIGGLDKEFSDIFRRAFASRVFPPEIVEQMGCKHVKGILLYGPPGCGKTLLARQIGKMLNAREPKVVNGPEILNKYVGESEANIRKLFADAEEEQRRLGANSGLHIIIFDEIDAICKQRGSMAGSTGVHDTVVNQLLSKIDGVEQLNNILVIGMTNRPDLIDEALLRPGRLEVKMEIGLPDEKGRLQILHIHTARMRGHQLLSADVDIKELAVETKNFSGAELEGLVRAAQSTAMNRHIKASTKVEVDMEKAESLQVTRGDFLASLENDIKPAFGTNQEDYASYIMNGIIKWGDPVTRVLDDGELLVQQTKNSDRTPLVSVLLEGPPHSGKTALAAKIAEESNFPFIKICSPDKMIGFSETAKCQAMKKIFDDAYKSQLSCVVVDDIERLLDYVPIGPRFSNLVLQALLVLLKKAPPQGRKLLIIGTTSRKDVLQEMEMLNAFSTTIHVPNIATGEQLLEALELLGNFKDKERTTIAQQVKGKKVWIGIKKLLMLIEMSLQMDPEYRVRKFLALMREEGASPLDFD

Substance: trout saccular hair cell dopamine D1A4 carboxy terminus, pRSET-A fusion protein (domain or fragment)
- Kd [1]: 0.0146 µM
- koff [1]: 0.00174 s⁻¹

Substance: trout saccular hair cell snapin, pRSET-A fusion protein (domain or fragment)
- Kd [2]: 0.0234 µM
- koff [2]: 0.00348 s⁻¹
- Kd [3]: 0.0269 µM
- koff [3]: 0.00784 s⁻¹

Substance: rat organ of Corti otoferlin C2F domain, pRSET-A fusion protein used for SPR (domain or fragment)
- Kd [4]: 0.129 µM
- koff [4]: 0.00273 s⁻¹
- kon [4]: 21200 M⁻¹ s⁻¹
- Kd [5]: 0.00229 µM
- koff [5]: 0.00073 s⁻¹

Substance: trout saccular hair cell otoferlin C2F domain, pRSET-A fusion protein (domain or fragment)
- Kd [1]: 0.013 µM
- koff [1]: 0.00407 s⁻¹
